Measured values as given in publication PMC9116133.
Blank lines part the entries; values can stand above or below the substance they belong to.

Key:
[1] = molecular target: truncated zymogen of histo-aspartic protease (pro-tHAP) (P. falciparum); experiment: crystal structure
[2] = molecular target: truncated zymogen of plasmepsin I (pro-tPMI) (P. falciparum); experiment: SAXS
[3] = molecular target: truncated zymogen of plasmepsin II, wild type (pro-tPMII) (P. falciparum); experiment: SEC

stoichiometry N [1]: 2
Substance: truncated zymogen of histo-aspartic protease (pro-tHAP) (enzyme)

stoichiometry N [2]: 2
Substance: truncated zymogen of plasmepsin I (pro-tPMI) (enzyme)

stoichiometry N [3]: 2
Substance: truncated zymogen of plasmepsin II, wild type (pro-tPMII) (enzyme)
